Measurements from the nanobody polyreactivity screen of Harvey et al. (2022).

Test: yeast display, Sf9 membrane polyspecificity reagent, FACS + sequencing; frameworks hold sequencing errors
Outline: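 A synthetic nanobody library was expressed on Saccharomyces cerevisiae BJ5465 by galactose induction for 36–48 hours. The library was stained for 1 hour at 4 °C with 10% biotinylated, detergent-solubilized Sf9 membrane reagent and enriched with streptavidin microbeads before FACS. Low and high (top ~1%) gates were set on anti-HA fluorescence for expression and streptavidin fluorescence for reagent binding, and each polyreactivity label reflects the gate of origin.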

| Sequence | polyreactivity (PSR sort gate) |
| --- | --- |
| QVQLVESGGGLVQAGGSLRLSCAASGSTLIGYAMGWYRQAPGKERELVAVINRSGGRTYYADSVKGRFTISRDNSKNTVYLQMNSLKPEDTAVYYCAARPTALSYDSWGQGTQVTVSS | high polyreactivity |
| QVQLVEAGGGLVQAGGSLRISCAASGITFLSNAMGWYRQAPGKEMELVAVITIGGSTYYADSVKGRFTISRDNAKNTVFLQLNSLKPEDTAVYYCAVELVAVPDRRFNYWGQGTQVTVSS | low polyreactivity |
| QVQLVESGGGLVQAGGSLRLSCAASGSTFRGYAMGWYRLAPGKEREFVASISLSGGSTYYADSVKGRFTISRDNAKNTVDSQMNSRKPEDTAVYDGAARARGYGWRGDYWGQGTHVTVSS | low polyreactivity |
| QVQLVESGGGLVQAGGSLRLSCAASGITFYGYAMGWYRQAPGKERELVARITISGRTNYADYVKGRFTISRDNAKNTVYLQMNSLKPEDTAVYYCNAVYRGYYSGELDYWGQGTQVTVSS | high polyreactivity |
| QVQLVESGGGLVQAGGSLRLSCAASGRIVWFYTMGWYRQAPGKERELVAAISDSAGSTYYADSVKGRFTISRDNAKNTVYLQMNSLKPEDTAVYYCAADGWWQYDYWGQGTQVTVSS | low polyreactivity |
| QVQLVESGGGLVQAGGSLRLSCAASGLTFYGNAMGWYRQAPGKERELVAAISSSGGTTYYADSVKGRFTISRDNEKNTVYLQMNSLKPEDTAVYYCNTRNTYFYAGYDYWGQGTQVTVSS | low polyreactivity |
| QVHLVESGGGLVQAGGSLRLSCAASGSIYVNTMGWYRPAPGKERELVAGISRSTGRTYYADSVKGRFTISRDNAKNTVYLQMNSLKPEDTAVYYCNTVPWRRWGYDYWGQGTQVTVSS | high polyreactivity |
| QVLLQESGGGLVQAGGSLRLSCAASGSIFLFYTMGWYRQAPVKEREFVAGITLGTTTYNADSVKGRFTISRDNVKNTVYLQMNSLKPEATAVYYCAVAVGHYTVFWYWGQGTQVTMSS | high polyreactivity |
| QVQLVESGGGLVQAGGSLRLSCAASVIICPDNAMGWDRPAPGKERELVAAITQSRGSTFYADSVKGRFTISRDNAKNTVYLQMKSLKPEDTAVYYCNAYRKFRYWGQGTQVTVSS | high polyreactivity |
| QVQLEESGGGLVQAGGSLRLSCAASGFIFGYYGMGWYRQAPGKERELVAAITDGGSTTYADSVKGRFTISRDNAKNTVYLQMNSLKPEDTAVYYCNAEAGGFDYYGKTYRYGDYWGQGTQVTVSS | low polyreactivity |
| QVPLVESGGGLVQAGGSLRIRCAASGSIFAGNALGWYRQAPGKEWELVAAIARRGGSTYYADSVKGRFTISRDNAKNTVYLQMNSLKPEDTAVYYCNDLLRYAYHAAFGYWGQATQVTVSS | high polyreactivity |
| QVQLVESGGGIVQAGGSLRVSCAASGTMGWYRQAPGKERELVAAISQSGGSTYYADSVKGRFTISRDNAKNTVYLQMNSLKPEDTAVYYCAVDPGYGHPRRDYWGQGTQVTVSS | low polyreactivity |
| QVQLVESGGGLVQAGGSLRLSCAASGFTFRSNAMGWYRQAPGKVRELVAAISYSGDSTYYADSVKGRFTISRDNAMNTVYLQMNSLKPEDTAVYYCNAVGSGYRSWYDYWGQGTQVTVSS | high polyreactivity |
| QVQLVESGGGLVQAGGSLRLSCAASGSIFARYAMGWYRQAPGKERELVAAISSNSASTYYADSVKGRFTISRDNAKNTVYLQMNSLKPEDTAVYYCATAYRSYWLNDYWGQGTQVTVSS | low polyreactivity |
| QVQLVESGGGLVQAGGSLRLSCAASGRIFYYYAMGWYRQAPGKERELVAAISSSGGSTYYADSVKGRYTISRDNAKNTVYLQMNSLKPEDTAVYYCNARTRYDMGYWGQGTQVTVSS | high polyreactivity |
| QVQLVESGGGLVKAGSSLRLSCAASGSIFLYNAMGWYRQAPGKERELVAVINGRGGTYYADSVKGRFTISRDNAKNTVYLQMNSLKPEDNSVYYCATGYPPSAWYDSVRFEDRDSWGQCTQVTVSS | low polyreactivity |
| QVQLVESGGGLVQARGSLRLSFAASGYTLRPNGMGWYRQAPGKERELVAAISSGGSTYYADSVKGRFTISRDNAKNTVYLQLNSLKPEDTAVSYCAAEYWYDYWVQGTQVTVSS | low polyreactivity |
| QVQLVESGGGLVQAGGSLRLSCAASGRIFDIYGMGWYRQAPGKERELLAAITWRGGSTYYADSVKGRFTISRDNAKNTVYLQMKSLNPEDTAVYYCNARKRGARFILGYDYWGQGTQVTVSS | low polyreactivity |
| QVQLVESGGGLVQAGGSLRLSCAASGSIFVRYAMGWYRQAPGKERELVAAISSGGRTYYADSVKGRFTISRDNAKNPVYLQMNSLKPEDTAVYYCNAVKRVPSLGPYDYWGQGTQVTVSS | high polyreactivity |
| QVQLVESGGGLVQAGGSLRLSCSDSGRTFGGNAMGRYRQAPGKERELVAAISRSGGTTYYADSVKGRFTISRDNAKNTVYLQMNSLKPEDTAVYYCNTRRYGAMYYWGQGTQVTVSS | high polyreactivity |
| QVQLVESGGGLVQAGGSLRLSCAASGFTFRYYAMGWYRQAPGKERELVAAISRSGGSTYYADSVKGRFTISRDNAKNTVYLQMNSLKPEDTAVYYCAARSHGWTPHGYDYWGQGTQVTVSS | high polyreactivity |
| QVQLVESGGGLVQAGCSLRLSCAASGRIYRRYAMGWYRQAPGKERELVAAISSRGGRTYYADSVKGRITISRDNAMNTVYLQMNSLKQEDTAVYYCAARPAGYGHYKYYYWGQGTQVTVSS | high polyreactivity |

| Sequence | polyreactivity (PSR sort gate) |
| --- | --- |
| QVQLVESGGGLVQAGGSLRLSCAASGFNFQGNAMGWYIQAPGNERELVAAISSDGSTYYADSVKGRFTISRDNAKNTVELQMYSLKPEDTAVYYCAAEWWYYYPGYIITSYDYWGQGTQVTVSS | low polyreactivity |
| QVQLVESGGGLVQAGGSLRLSCAASGSTFYYNAMGWYRQAPGKERELVAAITSSGGRTYYADSVKGRFTISRDNAKNTVYLQMNSLKPEDTAVYYCAKREASSRWPYDYWGQGTQVTVSS | low polyreactivity |
| QVQLVESGGGLVQAGGSLRLSCAASGSIFAINVMGWYRQAPGKEREFVAAISVRSGSTYYADSVKGRFTISRDNAKNTVYLQMNSLKPEDTAVYYCARDSYYIGRWLYYWGQGTQVTVSS | high polyreactivity |
| QVQLVESGGGLVQAGGSLRLSCAASGFTFGSNAMGWYRQAPGKERELVAAITWDGGSTYYADSVKGRFTISRDNAKNTVYLQMNSLKPEDTAVYYCARYLYATYGKYNYWGQGTQVTVSS | high polyreactivity |
| QVQLVESGGGLVQAGGSLRLSCAASGSTIDTNAMGWYRQAPGTDRELVAAITSGGNTYADSVKGRFTISRDNAKNTVYLQMNSLKPEDTAVYYCAAEDVYTGWYDYCGQGTQVTVSS | low polyreactivity |
| QVQLVESGGGLVQAGGSLRLSCAASGSTFNYYAMGGNRQAPGKESELVAAISTRGSSTSYADSVKGRFTISRDNAKNTVYLQMNSLKPEDTAVYYCTAPRWSPRRYGYWGQGTQVTVSS | high polyreactivity |
| QVQLVESGGGLVQAGGSLRLSCAASGFTFGAYAMGWYRHAPGKERELVAAINRRGGSTYYADSVKGRFTISRENAKNTVYLQMKSLKPEDTAVYYCNAPFGYDYWGQGTQVTVSS | high polyreactivity |
| QVQLVESGGGLVQAGGSLRLSCSASGSTFAYYTMGWYRQAPGKERELVAAISRSGGSTYYSDSVKGRFTISRDNAKNTVYLQMNSLKPEDTAVYYCAADKHYAVIPYEYWGQVTQVTVSS | high polyreactivity |
| QVHLQESGGGLVQAGGSLRLSCAASGYITLAQTIGWYRQAPGQEREFVASIALGSSTYYTDSVKGSFTISRDNAKTTVYLQMNSLKPEDTAVYYCAARVGSSYAHDYWGQGTQVTVSS | low polyreactivity |
| QVQLVESGGGLVQAGGSLRLSCAASGSTFISYAMGWSRQAPGKERELVAAISRNGGRTYYADSVKGRFTISRDNAKNTVYLQMNSLKPEDTAVYYCAAAYNSYRFDYWGQGTQVTVSS | high polyreactivity |
| QVQLEESGGGLVQAGGSLRLSCAASGSTFRLYAMGWYRQAPGKERELVATITNGGNTYYADSVKGRFTISRDNAKNTVYLQMNSLKPEDTAVYYCAKRLSRRYDYWGQGTQGTVSS | low polyreactivity |
| QVQLVESGAGLVQAGGSLRLSCAASGFTFDNYVMGWYRQAPGKERELVAAISKSGTSTYYADSVKGRFTISRDNAKNTVYLQMNSLKPEDTAVYYCAAALPGYGDYYYWGQGTLVTVSS | high polyreactivity |
| QVQLVESGGGLVQAGGSLRLSCAASGSIFYLNAMGWYRQAPGKERELVAAISKRGSRTYYADSVKGRFTISRDNAKNTVYLQMNSLKPEDTAVYYCNALDTPGYNTEPARQYDHWGQGTQVTVSS | high polyreactivity |
| QVQLVESGGGLVQAGGSLRLSCAASGRTFSRNAMGWYRQAPGKERELVATISSSGVRTYYADSVKGRFTISRDNAKNTVYLQMNSLKPEDTAVYYCAAAWRYYSAASGYDYWGQGTQVTVSS | low polyreactivity |
| QVQLVESGGGLDQAGGSLRLSCAASGRIFTVYAMGGYRQAPGKERELVAAISGRGGRTYYADSVKGRFTISRDIAKNTVYLQMNSLKPEDTAVYYCNADTLTLTRPDGDIHTVWMDYWGQGTQVTVSS | low polyreactivity |
| QVQLVESGGGLVQAGGSLRLSCAASGFTFIKYAMGWYRQAPGKEREFVSTISWNGGNTYYADSVKGRFTISRDNAKNTVYLQINSLKPEDTAVYYGAARVKYRTRGGTVVSYDYWGQGTQVTVSS | high polyreactivity |
| QVQLVESGGGLVQAGGSLRLSCAASGRIFRPYAMGWYRQAPGKERELVAAISVSGVITYYADSVKGRFTISRDNAKNTVYLQMNSLKPEDTAVYYCARRSSTRYFYGWYDYWGQGTQVTVSS | low polyreactivity |
| QVQLVESGGGLVQAGGSLRLSCAASYAMGGYRQAPGKERELVAGISRSGDITYYADSVKGRFTISRDNAKNTVYLQMNSLKPEDTAVYYCAARQGRYSGRQLFYWGQGTQVTVSS | high polyreactivity |
| QVQLVESGGGLVQAGGSLRLICAASGRTFAYYAMGWYIQAPGKERELVAAISSSGGRTYYADSVKGRFTISRDNAKNTVYLQMNSLKPEDTAVYFCAAYTTVKKNGYWGQGTQVTVSS | high polyreactivity |
| QVQLVESGGGLVQAGGSLSLSCAASGTFSPYAMGWYRQAPGKERELVADITSNTGRTYAASVKGRFTISRDNAKNTVYLQMNSLKPEDTAVYYCNTYGSGTHSTGYDYWGQGTQVTVSS | low polyreactivity |
| QVQLVESGGGLVQAGGSLRLSCAPSGNIFAINALGWYRQAPGKESELVATITGGGGSTSYADSVKGRFTISRDNAKNTVYLQMNSLKPEDTAVYSCAADTVYYYGEWYDYWNYVWFDYWGQGTQVTVSS | low polyreactivity |
